Results on one substance are retold here after patent US20050048627A1.

This assay addresses MMP-2 (UniProt P08253). Briefly: cell-based or functional assay.
Chain of UniProt P08253 (P08253 110-660 limits assumed): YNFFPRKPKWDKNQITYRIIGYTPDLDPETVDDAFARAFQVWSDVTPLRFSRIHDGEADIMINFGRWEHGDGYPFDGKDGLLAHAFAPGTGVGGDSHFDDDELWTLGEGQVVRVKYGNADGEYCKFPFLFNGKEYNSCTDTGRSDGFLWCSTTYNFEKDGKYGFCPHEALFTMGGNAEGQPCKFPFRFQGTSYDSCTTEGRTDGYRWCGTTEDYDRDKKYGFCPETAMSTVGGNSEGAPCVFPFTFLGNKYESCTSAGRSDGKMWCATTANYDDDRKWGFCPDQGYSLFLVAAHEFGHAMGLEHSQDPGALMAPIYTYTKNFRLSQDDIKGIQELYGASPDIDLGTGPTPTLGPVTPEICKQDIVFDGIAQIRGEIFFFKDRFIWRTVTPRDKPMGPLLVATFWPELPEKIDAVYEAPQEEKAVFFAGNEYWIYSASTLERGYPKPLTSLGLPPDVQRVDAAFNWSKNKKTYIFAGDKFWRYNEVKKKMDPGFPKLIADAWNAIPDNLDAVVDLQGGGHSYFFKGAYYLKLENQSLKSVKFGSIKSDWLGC

“human serum albumin-TIMP2 fusion protein” yielded an inhibition of MMP-2 activity (spectrofluorometric assay, 10 nM MMP-2, 10 µM MCA-Pro-Leu-Gly-Leu-Dap(Dnp)-Ala-Arg-NH2 substrate) at 7.5 µg/ml HSA-TIMP2 of 37% and an inhibition of MMP-2 activity (spectrofluorometric assay, 10 nM MMP-2, 10 µM MCA-Pro-Leu-Gly-Leu-Dap(Dnp)-Ala-Arg-NH2 substrate) at 15 µg/ml HSA-TIMP2 of 55%.
